The text below walks through data of US20140161804A1 (AbbVie / Abbott, published 2014).

The EC50 is the concentration that produces a half-maximal response. A low value points to a more potent agent.

B1: hMAK195-21-h10F7-A11.8 DVD-Ig (bispecific antibody, human IgG1, kappa, L234A L235A)
heavy: not shown
light: DIQMTQSPSSLSASVGDRVTITCRASQLVSSAVAWYQQKPGKAPKLLIYWASARHTGVPSRFSGSGSGTDFTLTISSLQPEDFATYYCQQHYKTPFTFGQGTKLEIKRGGSGGGGSGDIQMTQSPSSLSASVGDRVTITCRASSGIISYIDWFQQKPGKAPKRLIYATFDLASGVPSRFSGSGSGTDYTLTISSLQPEDFATYYCRQVGSYPETFGQGTKLEIKRTVAAPSVFIFPPSDEQLKSGTASVVCLLNNFYPREAKVQWKVDNALQSGNSQESVTEQDSKDSTYSLSSTLTLSKADYEKHKVYACEVTHQGLSSPVTKSFNRGEC
notes: DVD-Ig; IgG1 234,235 mut, kappa; GS10 linkers; light chain shared with the M11 DVD-Ig; also called hMAK195-21-GS10-A11 DVD
B2: hMAK195-21-h10F7-A6.8 DVD-Ig (bispecific antibody, human IgG1, kappa, L234A L235A)
heavy: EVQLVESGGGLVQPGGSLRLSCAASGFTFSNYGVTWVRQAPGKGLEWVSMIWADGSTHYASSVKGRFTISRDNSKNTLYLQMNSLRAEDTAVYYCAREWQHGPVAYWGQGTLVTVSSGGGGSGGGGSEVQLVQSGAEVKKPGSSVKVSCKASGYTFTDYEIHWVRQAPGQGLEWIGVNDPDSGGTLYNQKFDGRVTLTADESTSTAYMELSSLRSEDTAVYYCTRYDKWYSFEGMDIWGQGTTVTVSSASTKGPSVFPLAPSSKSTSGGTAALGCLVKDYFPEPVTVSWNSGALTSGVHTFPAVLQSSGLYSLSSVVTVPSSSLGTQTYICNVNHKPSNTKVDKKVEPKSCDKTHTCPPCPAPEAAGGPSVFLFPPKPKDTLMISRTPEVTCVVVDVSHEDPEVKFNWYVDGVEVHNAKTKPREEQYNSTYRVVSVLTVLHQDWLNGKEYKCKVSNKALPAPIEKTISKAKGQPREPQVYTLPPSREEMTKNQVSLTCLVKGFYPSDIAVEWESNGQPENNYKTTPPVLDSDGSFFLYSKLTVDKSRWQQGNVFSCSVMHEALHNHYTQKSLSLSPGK
light: DIQMTQSPSSLSASVGDRVTITCRASQLVSSAVAWYQQKPGKAPKLLIYWASARHTGVPSRFSGSGSGTDFTLTISSLQPEDFATYYCQQHYKTPFTFGQGTKLEIKRGGSGGGGSGDIQMTQSPSSLSASVGDRVTITCSASQGIRSYIDWFQQKPGKSPKRLIYATFDLASGVPSRFSGSGSGTDYTLTISSLQPEDFATYYCRQVGNYPGTFGQGTKLEIKRTVAAPSVFIFPPSDEQLKSGTASVVCLLNNFYPREAKVQWKVDNALQSGNSQESVTEQDSKDSTYSLSSTLTLSKADYEKHKVYACEVTHQGLSSPVTKSFNRGEC
notes: DVD-Ig; IgG1 234,235 mut, kappa; GS10 linkers; also called hMAK195-21-GS10-A6 DVD
B3: hMAK195-21-h10F7-A16.8 DVD-Ig (bispecific antibody, human IgG1, kappa, L234A L235A)
heavy: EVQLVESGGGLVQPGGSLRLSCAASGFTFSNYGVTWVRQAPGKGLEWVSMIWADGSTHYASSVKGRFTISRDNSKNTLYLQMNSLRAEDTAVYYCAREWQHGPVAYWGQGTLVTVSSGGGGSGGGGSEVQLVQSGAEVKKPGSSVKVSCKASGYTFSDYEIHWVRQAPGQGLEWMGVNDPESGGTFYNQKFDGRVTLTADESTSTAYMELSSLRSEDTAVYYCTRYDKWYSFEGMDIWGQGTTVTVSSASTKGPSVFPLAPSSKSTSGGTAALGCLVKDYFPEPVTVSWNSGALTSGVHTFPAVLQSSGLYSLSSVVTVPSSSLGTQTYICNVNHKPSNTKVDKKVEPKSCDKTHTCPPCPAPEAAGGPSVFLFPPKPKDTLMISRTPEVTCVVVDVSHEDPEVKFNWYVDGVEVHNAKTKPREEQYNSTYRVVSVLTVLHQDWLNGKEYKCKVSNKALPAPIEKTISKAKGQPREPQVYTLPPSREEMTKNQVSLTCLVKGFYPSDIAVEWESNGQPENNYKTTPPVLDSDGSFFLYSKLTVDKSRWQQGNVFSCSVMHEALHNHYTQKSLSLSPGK
light: DIQMTQSPSSLSASVGDRVTITCRASQLVSSAVAWYQQKPGKAPKLLIYWASARHTGVPSRFSGSGSGTDFTLTISSLQPEDFATYYCQQHYKTPFTFGQGTKLEIKRGGSGGGGSGDIQMTQSPSSLSASVGDRVTITCSASQGIRSYIDWFQQKPGKSPKRLIYATFDLASGVPSRFSGSGSGTDYTLTISSLQPEDFATYYCRQVGNYPGTFGQGTKLEIKRTVAAPSVFIFPPSDEQLKSGTASVVCLLNNFYPREAKVQWKVDNALQSGNSQESVTEQDSKDSTYSLSSTLTLSKADYEKHKVYACEVTHQGLSSPVTKSFNRGEC
notes: DVD-Ig; IgG1 234,235 mut, kappa; GS10 linkers; light chain shared with the A6 DVD-Ig; also called ShMAK195-21-h10F7-A16.8 DVD-Ig; hMAK195-21-GS10-A16 DVD
B4: hMAK195-24-h10F7-A16.8 DVD-Ig (bispecific antibody, human IgG1, kappa, L234A L235A)
heavy: not shown
light: DIQMTQSPSSLSASVGDRVTITCKASQLVSSAVAWYQQKPGKAPKLLIYWASTLHTGVPSRFSGSGSGTDFTLTISSLQPEDFATYYCQQHYRTPFTFGQGTKLEIKRGGSGGGGSGDIQMTQSPSSLSASVGDRVTITCSASQGIRSYIDWFQQKPGKSPKRLIYATFDLASGVPSRFSGSGSGTDYTLTISSLQPEDFATYYCRQVGNYPGTFGQGTKLEIKRTVAAPSVFIFPPSDEQLKSGTASVVCLLNNFYPREAKVQWKVDNALQSGNSQESVTEQDSKDSTYSLSSTLTLSKADYEKHKVYACEVTHQGLSSPVTKSFNRGEC
notes: DVD-Ig; IgG1 234,235 mut, kappa; GS10 linkers; light chain shared with the A6 DVD-Ig; also called hMAK195-24-GS10-A16 DVD
B5: hMAK195-21-h10F7-M10.8 DVD-Ig (bispecific antibody, human IgG1, kappa, L234A L235A)
heavy: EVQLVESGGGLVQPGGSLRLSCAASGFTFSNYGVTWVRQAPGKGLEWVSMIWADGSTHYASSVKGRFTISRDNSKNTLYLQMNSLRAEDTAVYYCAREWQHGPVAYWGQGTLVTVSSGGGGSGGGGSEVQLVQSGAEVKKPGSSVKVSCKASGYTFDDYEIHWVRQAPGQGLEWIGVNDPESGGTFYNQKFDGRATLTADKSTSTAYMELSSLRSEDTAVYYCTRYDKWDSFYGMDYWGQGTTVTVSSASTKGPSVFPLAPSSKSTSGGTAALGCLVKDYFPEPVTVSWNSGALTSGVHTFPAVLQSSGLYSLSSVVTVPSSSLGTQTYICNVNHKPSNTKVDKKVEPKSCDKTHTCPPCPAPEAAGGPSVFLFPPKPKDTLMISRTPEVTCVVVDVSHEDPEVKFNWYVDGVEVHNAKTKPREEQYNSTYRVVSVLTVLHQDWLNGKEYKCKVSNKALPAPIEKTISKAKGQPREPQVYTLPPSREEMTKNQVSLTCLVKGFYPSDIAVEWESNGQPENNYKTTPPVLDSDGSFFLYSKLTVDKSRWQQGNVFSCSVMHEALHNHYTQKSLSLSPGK
light: DIQMTQSPSSLSASVGDRVTITCRASQLVSSAVAWYQQKPGKAPKLLIYWASARHTGVPSRFSGSGSGTDFTLTISSLQPEDFATYYCQQHYKTPFTFGQGTKLEIKRGGSGGGGSGDIQMTQSPSSLSASVGDRVTITCSASSGSISYIDWFQQKPGKAPKRLIYATFELASGVPSRFSGSGSGTDFTLTISSLQPEDFATYYCHQLGSYPDTFGQGTKLEIKRTVAAPSVFIFPPSDEQLKSGTASVVCLLNNFYPREAKVQWKVDNALQSGNSQESVTEQDSKDSTYSLSSTLTLSKADYEKHKVYACEVTHQGLSSPVTKSFNRGEC
notes: DVD-Ig; IgG1 234,235 mut, kappa; GS10 linkers; also called hMAK195-21-GS10-M10 DVD
B6: hMAK195-24-h10F7-A6.8 DVD-Ig (bispecific antibody, human IgG1, kappa, L234A L235A)
heavy: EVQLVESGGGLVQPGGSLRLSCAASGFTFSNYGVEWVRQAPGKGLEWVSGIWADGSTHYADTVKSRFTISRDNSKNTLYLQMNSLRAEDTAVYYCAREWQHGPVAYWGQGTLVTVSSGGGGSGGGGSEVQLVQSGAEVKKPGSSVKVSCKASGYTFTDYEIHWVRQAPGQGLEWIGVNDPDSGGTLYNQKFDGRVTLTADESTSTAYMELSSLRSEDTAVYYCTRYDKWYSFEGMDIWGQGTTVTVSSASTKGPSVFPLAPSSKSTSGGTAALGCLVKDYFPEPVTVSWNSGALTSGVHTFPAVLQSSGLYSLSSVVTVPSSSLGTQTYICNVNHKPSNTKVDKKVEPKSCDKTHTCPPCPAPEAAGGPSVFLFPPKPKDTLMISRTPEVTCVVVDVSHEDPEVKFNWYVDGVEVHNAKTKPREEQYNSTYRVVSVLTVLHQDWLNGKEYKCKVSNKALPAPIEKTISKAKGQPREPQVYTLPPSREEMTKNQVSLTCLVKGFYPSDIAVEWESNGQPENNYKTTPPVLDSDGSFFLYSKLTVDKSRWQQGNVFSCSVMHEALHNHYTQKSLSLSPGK
light: DIQMTQSPSSLSASVGDRVTITCKASQLVSSAVAWYQQKPGKAPKLLIYWASTLHTGVPSRFSGSGSGTDFTLTISSLQPEDFATYYCQQHYRTPFTFGQGTKLEIKRGGSGGGGSGDIQMTQSPSSLSASVGDRVTITCSASQGIRSYIDWFQQKPGKSPKRLIYATFDLASGVPSRFSGSGSGTDYTLTISSLQPEDFATYYCRQVGNYPGTFGQGTKLEIKRTVAAPSVFIFPPSDEQLKSGTASVVCLLNNFYPREAKVQWKVDNALQSGNSQESVTEQDSKDSTYSLSSTLTLSKADYEKHKVYACEVTHQGLSSPVTKSFNRGEC
notes: DVD-Ig; IgG1 234,235 mut, kappa; GS10 linkers; also called hMAK195-24-GS10-A6 DVD
B7: hMAK195-21-h10F7-B20.8 DVD-Ig (bispecific antibody, human IgG1, kappa, L234A L235A)
heavy: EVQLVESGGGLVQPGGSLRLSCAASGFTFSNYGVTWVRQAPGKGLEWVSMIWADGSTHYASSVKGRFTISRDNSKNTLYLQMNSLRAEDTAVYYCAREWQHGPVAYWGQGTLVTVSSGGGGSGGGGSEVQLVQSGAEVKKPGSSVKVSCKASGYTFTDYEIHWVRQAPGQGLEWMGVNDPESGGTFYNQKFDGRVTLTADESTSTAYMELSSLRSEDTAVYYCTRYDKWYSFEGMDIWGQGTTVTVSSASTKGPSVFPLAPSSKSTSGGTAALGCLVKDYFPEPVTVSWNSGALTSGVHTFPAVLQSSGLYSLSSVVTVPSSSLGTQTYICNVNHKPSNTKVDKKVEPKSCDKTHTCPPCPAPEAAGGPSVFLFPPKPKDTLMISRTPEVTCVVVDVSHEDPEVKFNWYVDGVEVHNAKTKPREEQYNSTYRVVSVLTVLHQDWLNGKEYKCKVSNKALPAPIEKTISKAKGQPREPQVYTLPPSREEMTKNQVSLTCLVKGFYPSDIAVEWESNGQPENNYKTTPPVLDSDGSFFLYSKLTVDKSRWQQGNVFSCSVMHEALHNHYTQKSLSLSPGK
light: DIQMTQSPSSLSASVGDRVTITCRASQLVSSAVAWYQQKPGKAPKLLIYWASARHTGVPSRFSGSGSGTDFTLTISSLQPEDFATYYCQQHYKTPFTFGQGTKLEIKRGGSGGGGSGDIQMTQSPSSLSASVGDRVTITCRASSGIISYIDWFQQKPGKAPKRLIYATFDLASGVPSRFSGSGSGTDYTLTISSLQPEDFATYYCRQVGSYPETFGQGTKLEIKRTVAAPSVFIFPPSDEQLKSGTASVVCLLNNFYPREAKVQWKVDNALQSGNSQESVTEQDSKDSTYSLSSTLTLSKADYEKHKVYACEVTHQGLSSPVTKSFNRGEC
notes: DVD-Ig; IgG1 234,235 mut, kappa; GS10 linkers; light chain shared with the M11 DVD-Ig; also called hMAK195-21-GS10-B20 DVD
B8: hMAK195-24-h10F7-M10.8 DVD-Ig (bispecific antibody, human IgG1, kappa, L234A L235A)
heavy: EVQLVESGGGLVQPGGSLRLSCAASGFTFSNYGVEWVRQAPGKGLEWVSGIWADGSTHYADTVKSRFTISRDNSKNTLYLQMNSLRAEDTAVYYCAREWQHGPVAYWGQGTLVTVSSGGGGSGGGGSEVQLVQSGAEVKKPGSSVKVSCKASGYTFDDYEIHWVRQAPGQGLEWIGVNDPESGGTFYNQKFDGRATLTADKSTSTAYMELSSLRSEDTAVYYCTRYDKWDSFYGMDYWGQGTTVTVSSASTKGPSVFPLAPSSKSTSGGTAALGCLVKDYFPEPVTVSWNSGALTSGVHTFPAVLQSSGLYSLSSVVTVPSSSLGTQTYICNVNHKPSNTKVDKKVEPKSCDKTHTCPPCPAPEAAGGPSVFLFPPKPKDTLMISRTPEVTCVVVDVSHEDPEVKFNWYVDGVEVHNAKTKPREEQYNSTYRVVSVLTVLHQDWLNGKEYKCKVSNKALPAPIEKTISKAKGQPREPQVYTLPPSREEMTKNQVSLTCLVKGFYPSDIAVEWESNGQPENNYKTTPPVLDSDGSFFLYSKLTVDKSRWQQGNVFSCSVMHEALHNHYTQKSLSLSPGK
light: DIQMTQSPSSLSASVGDRVTITCKASQLVSSAVAWYQQKPGKAPKLLIYWASTLHTGVPSRFSGSGSGTDFTLTISSLQPEDFATYYCQQHYRTPFTFGQGTKLEIKRGGSGGGGSGDIQMTQSPSSLSASVGDRVTITCSASSGSISYIDWFQQKPGKAPKRLIYATFELASGVPSRFSGSGSGTDFTLTISSLQPEDFATYYCHQLGSYPDTFGQGTKLEIKRTVAAPSVFIFPPSDEQLKSGTASVVCLLNNFYPREAKVQWKVDNALQSGNSQESVTEQDSKDSTYSLSSTLTLSKADYEKHKVYACEVTHQGLSSPVTKSFNRGEC
notes: DVD-Ig; IgG1 234,235 mut, kappa; GS10 linkers; also called hMAK195-24-GS10-M10 DVD
B9: hMAK195-21-h10F7-B13.8 DVD-Ig (bispecific antibody, human IgG1, kappa, L234A L235A)
heavy: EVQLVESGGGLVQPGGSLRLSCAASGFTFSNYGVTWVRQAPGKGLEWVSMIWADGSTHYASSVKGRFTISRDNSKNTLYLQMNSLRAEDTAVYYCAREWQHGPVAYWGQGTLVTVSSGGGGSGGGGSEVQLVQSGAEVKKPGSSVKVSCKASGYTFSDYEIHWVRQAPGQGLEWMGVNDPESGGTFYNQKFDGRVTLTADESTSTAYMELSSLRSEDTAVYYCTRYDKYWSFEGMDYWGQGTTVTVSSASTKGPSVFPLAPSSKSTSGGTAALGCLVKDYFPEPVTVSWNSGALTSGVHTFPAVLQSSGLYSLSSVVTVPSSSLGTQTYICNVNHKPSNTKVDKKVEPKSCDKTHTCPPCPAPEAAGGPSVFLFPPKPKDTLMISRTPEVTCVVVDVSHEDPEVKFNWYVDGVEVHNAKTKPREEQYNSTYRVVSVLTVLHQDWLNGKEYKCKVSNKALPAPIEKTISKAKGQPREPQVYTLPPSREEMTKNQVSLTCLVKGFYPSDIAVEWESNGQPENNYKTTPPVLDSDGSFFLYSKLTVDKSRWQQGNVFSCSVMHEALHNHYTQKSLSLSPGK
light: DIQMTQSPSSLSASVGDRVTITCRASQLVSSAVAWYQQKPGKAPKLLIYWASARHTGVPSRFSGSGSGTDFTLTISSLQPEDFATYYCQQHYKTPFTFGQGTKLEIKRGGSGGGGSGDIQMTQSPSSLSASVGDRVTITCRASSGIISYIDWFQQKPGKAPKRLIYATFDLASGVPSRFSGSGSGTDYTLTISSLQPEDFATYYCRQVGSYPETFGQGTKLEIKRTVAAPSVFIFPPSDEQLKSGTASVVCLLNNFYPREAKVQWKVDNALQSGNSQESVTEQDSKDSTYSLSSTLTLSKADYEKHKVYACEVTHQGLSSPVTKSFNRGEC
notes: DVD-Ig; IgG1 234,235 mut, kappa; GS10 linkers; light chain shared with the M11 DVD-Ig; also called hMAK195-21-GS10-B13 DVD
B10: hMAK199-10-h10F7-M10.8 DVD-Ig (bispecific antibody, human IgG1, kappa, L234A L235A)
heavy: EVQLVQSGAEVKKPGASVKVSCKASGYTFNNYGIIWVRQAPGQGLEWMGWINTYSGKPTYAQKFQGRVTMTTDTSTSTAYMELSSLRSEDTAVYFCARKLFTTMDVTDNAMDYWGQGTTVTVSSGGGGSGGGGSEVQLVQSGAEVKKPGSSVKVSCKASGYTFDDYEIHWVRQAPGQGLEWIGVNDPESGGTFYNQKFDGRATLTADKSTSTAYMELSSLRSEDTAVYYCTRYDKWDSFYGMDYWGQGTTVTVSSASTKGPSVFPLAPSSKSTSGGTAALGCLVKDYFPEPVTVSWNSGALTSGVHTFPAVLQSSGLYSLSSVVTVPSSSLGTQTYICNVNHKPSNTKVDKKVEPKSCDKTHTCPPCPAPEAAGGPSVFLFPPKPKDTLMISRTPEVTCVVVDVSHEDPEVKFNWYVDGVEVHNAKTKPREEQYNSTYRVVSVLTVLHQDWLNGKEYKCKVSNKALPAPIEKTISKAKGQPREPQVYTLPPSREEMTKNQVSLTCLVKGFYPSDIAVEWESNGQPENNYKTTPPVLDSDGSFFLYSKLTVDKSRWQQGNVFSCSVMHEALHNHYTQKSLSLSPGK
light: DIQMTQSPSSLSASVGDRVTITCRASQDISNFLNWYQQKPGKAPKLLIYYTSRLQSGVPSRFSGSGSGTDYTLTISSLQPEDFATYFCQQGNTQPPTFGQGTKLEIKRGGSGGGGSGDIQMTQSPSSLSASVGDRVTITCSASSGSISYIDWFQQKPGKAPKRLIYATFELASGVPSRFSGSGSGTDFTLTISSLQPEDFATYYCHQLGSYPDTFGQGTKLEIKRTVAAPSVFIFPPSDEQLKSGTASVVCLLNNFYPREAKVQWKVDNALQSGNSQESVTEQDSKDSTYSLSSTLTLSKADYEKHKVYACEVTHQGLSSPVTKSFNRGEC
notes: DVD-Ig; IgG1 234,235 mut, kappa; GS10 linkers; also called HMAK199-10-GS10-H10F7-M10 DVD
B11: hMAK199-10-h10F7-M11.8 DVD-Ig (bispecific antibody, human IgG1, kappa, L234A L235A)
heavy: not shown
light: DIQMTQSPSSLSASVGDRVTITCRASQDISNFLNWYQQKPGKAPKLLIYYTSRLQSGVPSRFSGSGSGTDYTLTISSLQPEDFATYFCQQGNTQPPTFGQGTKLEIKRGGSGGGGSGDIQMTQSPSSLSASVGDRVTITCRASSGIISYIDWFQQKPGKAPKRLIYATFDLASGVPSRFSGSGSGTDYTLTISSLQPEDFATYYCRQVGSYPETFGQGTKLEIKRTVAAPSVFIFPPSDEQLKSGTASVVCLLNNFYPREAKVQWKVDNALQSGNSQESVTEQDSKDSTYSLSSTLTLSKADYEKHKVYACEVTHQGLSSPVTKSFNRGEC
notes: DVD-Ig; IgG1 234,235 mut, kappa; GS10 linkers; also called HMAK199-10-GS10-H10F7-M11 DVD

This test deals with T1, Human IL-17A (human, UniProt Q16552 20-155, limits assumed).
T1 construct: Biotinylated in the ELISAs; purified recombinant protein in SPR; also called hIL17A; hIL-17
T1 sequence (Q16552 20-155 limits assumed): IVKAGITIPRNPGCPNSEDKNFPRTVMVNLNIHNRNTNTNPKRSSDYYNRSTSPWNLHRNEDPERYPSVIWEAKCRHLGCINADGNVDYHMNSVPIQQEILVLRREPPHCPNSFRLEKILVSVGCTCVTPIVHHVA
Description: ELISA, captured DVD-Ig, biotin-human IL-17 titrated. The method, then: The following protocol is used to characterize the binding of TNF/IL-17 DVD-Ig proteins to human TNF and IL-17 by enzyme-linked immunosorbent assay (ELISA). An ELISA plate was coated with 50 μl per well of goat anti mouse IgG-Fc at 2 μg/ml, overnight at 4° C. The plate was washed 3 times with PBS/Tween. 50 μl Mab diluted to 1 μg/ml in PBS/0.1% BSA was added to appropriate wells and incubated for 1 hour at room temperature (RT). The plate was washed 3 times with PBS/Tween. 50 μl of serial diluted biotin-human TNF or IL-17 was added to appropriate wells and incubated for 1 hour at RT. The plate was washed 3 times with PBS/Tween. 50 μl of streptavidin-HRP diluted 1:10,000 in PBS/0.1% BSA was added to appropriate wells and incubated for 1 hour at RT. The plate was washed 3 times with PBS/Tween. 50 μl of TMB was added to appropriate wells and the reaction allowed to proceed for 1 minute. The reaction was stopped with 50 μl/well 2N H₂SO₄ and the absorbance read at 450 nm.
On to B1, for which a half-maximal response (EC50) required 0.3 nM.

For B2, the response was half-maximal at 0.13 nM (EC50). Compared with the last molecule, the EC50 is about 2.3-fold lower.

For the molecule B3, the EC50 was determined as 0.23 nM.

B4 showed an EC50 of 0.093 nM.

As for B5, the EC50 was determined as 0.1 nM.

Molecule B6 displayed an EC50 of 0.188 nM. This EC50 is about 1.9-fold higher than that of the molecule before.

B7 came in with an EC50 of 0.242 nM.

B8 came in with an EC50 of 0.1 nM.

In turn, B9 registered an EC50 of 0.2 nM.

In turn, B10 came in with an EC50 of 0.079 nM.

With B11, the EC50 was 0.133 nM.
